This assay addresses GFP-tagged Pak1 (human) (UniProt Q13153). The experiment in a line: cell-based or functional assay.

The values that follow come from patent US20040208880A1.

Sequence of GFP-tagged Pak1 (human) (Q13153 whole entry A26V/E503D): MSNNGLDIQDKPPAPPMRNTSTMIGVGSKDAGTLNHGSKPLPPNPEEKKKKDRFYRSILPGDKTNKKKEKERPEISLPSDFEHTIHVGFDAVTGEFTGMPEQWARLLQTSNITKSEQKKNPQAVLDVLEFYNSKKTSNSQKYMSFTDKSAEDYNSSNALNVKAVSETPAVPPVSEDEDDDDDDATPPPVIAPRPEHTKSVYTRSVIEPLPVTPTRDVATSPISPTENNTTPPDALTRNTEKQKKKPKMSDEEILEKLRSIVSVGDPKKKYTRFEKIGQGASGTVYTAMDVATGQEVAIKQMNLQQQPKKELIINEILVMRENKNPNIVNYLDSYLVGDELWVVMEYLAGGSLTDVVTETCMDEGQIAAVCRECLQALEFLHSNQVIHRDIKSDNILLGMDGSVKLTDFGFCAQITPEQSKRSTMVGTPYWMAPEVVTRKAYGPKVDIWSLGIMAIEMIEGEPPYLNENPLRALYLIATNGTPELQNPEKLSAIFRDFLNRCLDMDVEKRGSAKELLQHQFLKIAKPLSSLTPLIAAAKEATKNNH

As to “RFP-DLC1-1-66 (from UniProt P61273 1-66)”, the vesicle formation (macropinocytosis), confocal microscopy of cotransfected SKBR3 cells (% of the transfected cells) is greater than 80.
